To fix the notation:
T1: MAGE-A4 peptide on HLA-A*02:01 (human)
T1 peptide: KVLEHVVRV

B1: PN41654 (TCR, V domains shown)
V domain 1: GESVGLHLPTLSVQEGDNSIINCAYSNSASDYFIWYKQESGKGPQFIIDIRSNMDKRQGQRVTVLLNKTVKHLSLQIAATQPGDSAVYFCAEKRDNYGQNFVFGPGTRLSVLP
V domain 2: DVKVTQSSRYLVKRTGEKVFLECVQDMDHENMFWYRQDPGLGLRLIYFSYDVKMKEKGDIPEGYSVSREKKERFSLILESASTNQTSMYLCASSLYSYGYTFGSGTRLTVV
notes: stained with anti-mouse TCR constant region H57-597; full-length chains on transfected CHO cells; also called TCR No. 22
B2: PN41746 (TCR, V domains shown)
V domain 1: AQTVTQSQPEMSVQEAETVTLSCTYDTSESDYYLFWYKQPPSRQMILVIRQEAYKQQNATENRFSVNFQKAAKSFSLKISDSQLGDAAMYFCAYRSATGNQFYFGTGTSLTVIP
V domain 2: DVKVTQSSRYLVKRTGEKVFLECVQDMDHENMFWYRQDPGLGLRLIYFSYDVKMKEKGDIPEGYSVSREKKERFSLILESASTNQTSMYLCASSLWGLNTEAFFGQGTRLTVV
notes: stained with anti-mouse TCR constant region H57-597; full-length chains on transfected CHO cells; also called TCR No. 28
B3: PN41656 (TCR, V domains shown)
V domain 1: AQKITQTQPGMFVQEKEAVTLDCTYDTSDPSYGLFWYKQPSSGEMIFLIYQGSYDQQNATEGRYSLNFQKARKSANLVISASQLGDSAMYFCAMRDLTTSGTYKYIFGTGTRLKVLA
V domain 2: B2 V domain 2 with L95F, W96G, L98W, N99G, T100Y, E101G, A102Y, F103T, Q106S
notes: stained with anti-mouse TCR constant region H57-597; full-length chains on transfected CHO cells; also called TCR No. 23
B4: PN41820 (TCR, V domains shown)
V domain 1: AQSVTQPGSHVSVSEGALVLLRCNYSSSVPPYLFWYVQYPNQGLQLLLKYTTGATLVKGINGFEAEFKKSETSFHLTKPSAHMSDAAEYFCAVSSGSARQLTFGSGTQLTVLP
V domain 2: B2 V domain 2 with L95H, W96D, G97R, L98W, N99D, T100Y, E101G, A102Y, F103T, Q106S
notes: stained with anti-mouse TCR constant region H57-597; full-length chains on transfected CHO cells; also called TCR No. 31
B5: PN41532 (TCR, V domains shown)
V domain 1: B2 V domain 1 with T98E
V domain 2: B2 V domain 2
notes: stained with anti-mouse TCR constant region H57-597; full-length chains on transfected CHO cells; also called TCR No. 8
B6: PN41868 (TCR, V domains shown)
V domain 1: B2 V domain 1
V domain 2: B2 V domain 2 with L98T, N99H, T100E, E101K, A102L, Q106S, R109Q, T111S, V113L
notes: stained with anti-mouse TCR constant region H57-597; full-length chains on transfected CHO cells; also called TCR No. 37
B7: PN41869 (TCR, V domains shown)
V domain 1: B2 V domain 1 with A97S
V domain 2: B2 V domain 2 with L98T, T100E, E101K, A102L, Q106S, R109Q, T111S, V113L
notes: stained with anti-mouse TCR constant region H57-597; full-length chains on transfected CHO cells; also called TCR No. 38
B8: PN41852 (TCR, V domains shown)
V domain 1: B2 V domain 1 with T98L, Q101D, F102M, Y103R, T106A, S109R, I113K
V domain 2: B2 V domain 2 with G97A
notes: stained with anti-mouse TCR constant region H57-597; full-length chains on transfected CHO cells; also called TCR No. 35
B9: PN41475 (TCR, V domains shown)
V domain 1: B2 V domain 1 with E61V
V domain 2: B2 V domain 2 with L98S
notes: stained with anti-mouse TCR constant region H57-597; full-length chains on transfected CHO cells; also called TCR No. 1
B10: PN41565 (TCR, V domains shown)
V domain 1: B2 V domain 1 with A97P
V domain 2: B2 V domain 2 with G97A, L98M
notes: stained with anti-mouse TCR constant region H57-597; full-length chains on transfected CHO cells; also called TCR No. 13
B11: PN41607 (TCR, V domains shown)
V domain 1: B2 V domain 1 with T98S
V domain 2: B2 V domain 2 with L98T, T100E, E101K, A102L, Q106S, R109Q, T111S, V113L
notes: stained with anti-mouse TCR constant region H57-597; full-length chains on transfected CHO cells; also called TCR No. 17
B12: PN41822 (TCR, V domains shown)
V domain 1: B2 V domain 1
V domain 2: B2 V domain 2 with G97A
notes: stained with anti-mouse TCR constant region H57-597; full-length chains on transfected CHO cells; also called TCR No. 32
B13: PN41702 (TCR, V domains shown)
V domain 1: B2 V domain 1
V domain 2: B2 V domain 2 with G97A, L98V, T100E, E101K, A102L, Q106S, R109Q, T111S, V113L
notes: stained with anti-mouse TCR constant region H57-597; full-length chains on transfected CHO cells; also called TCR No. 25
B14: PN41518 (TCR, V domains shown)
V domain 1: B2 V domain 1 with T98P
V domain 2: B2 V domain 2 with G97A, L98T, T100E, E101K, A102L, Q106S, R109Q, T111S, V113L
notes: stained with anti-mouse TCR constant region H57-597; full-length chains on transfected CHO cells; also called TCR No. 5
B15: PN41523 (TCR, V domains shown)
V domain 1: B2 V domain 1 with T98P
V domain 2: B2 V domain 2
notes: stained with anti-mouse TCR constant region H57-597; full-length chains on transfected CHO cells; also called TCR No. 7
B16: PN41829 (TCR, V domains shown)
V domain 1: B2 V domain 1
V domain 2: B2 V domain 2 with W96F, G97A
notes: stained with anti-mouse TCR constant region H57-597; full-length chains on transfected CHO cells; also called TCR No. 33
B17: PN41608 (TCR, V domains shown)
V domain 1: B2 V domain 1 with T98P
V domain 2: B2 V domain 2 with L95F, L98W
notes: stained with anti-mouse TCR constant region H57-597; full-length chains on transfected CHO cells; also called TCR No. 18
B18: PN41690 (TCR, V domains shown)
V domain 1: B2 V domain 1 with T98I
V domain 2: B2 V domain 2 with L98V
notes: stained with anti-mouse TCR constant region H57-597; full-length chains on transfected CHO cells; also called TCR No. 24
B19: PN41573 (TCR, V domains shown)
V domain 1: B2 V domain 1
V domain 2: B2 V domain 2 with L98T, T100E, E101K, A102L, Q106S, R109Q, T111S, V113L
notes: stained with anti-mouse TCR constant region H57-597; full-length chains on transfected CHO cells; also called TCR No. 15
B20: PN41494 (TCR, V domains shown)
V domain 1: B2 V domain 1
V domain 2: B2 V domain 2 with L98W, T100S, E101P, A102L, F103H, Q106N, V113T
notes: stained with anti-mouse TCR constant region H57-597; full-length chains on transfected CHO cells; also called TCR No. 2
B21: PN41617 (TCR, V domains shown)
V domain 1: B2 V domain 1 with T98S
V domain 2: B2 V domain 2 with L98M
notes: stained with anti-mouse TCR constant region H57-597; full-length chains on transfected CHO cells; also called TCR No. 20
B22: PN41559 (TCR, V domains shown)
V domain 1: B2 V domain 1
V domain 2: B2 V domain 2 with L98W, N99G
notes: stained with anti-mouse TCR constant region H57-597; full-length chains on transfected CHO cells; also called TCR No. 12
B23: PN41577 (TCR, V domains shown)
V domain 1: B2 V domain 1 with T98P
V domain 2: B2 V domain 2 with L98T, T100E, E101K, A102L, Q106S, R109Q, T111S, V113L
notes: stained with anti-mouse TCR constant region H57-597; full-length chains on transfected CHO cells; also called TCR No. 16
B24: PN41520 (TCR, V domains shown)
V domain 1: B2 V domain 1 with T98R
V domain 2: B2 V domain 2 with L98V, T100S, E101P, A102L, F103H, Q106N, V113T
notes: stained with anti-mouse TCR constant region H57-597; full-length chains on transfected CHO cells; also called TCR No. 6
B25: PN41513 (TCR, V domains shown)
V domain 1: B2 V domain 1 with T98P
V domain 2: B2 V domain 2 with W96F, G97A, L98T, T100E, E101K, A102L, Q106S, R109Q, T111S, V113L
notes: stained with anti-mouse TCR constant region H57-597; full-length chains on transfected CHO cells; also called TCR No. 3
B26: PN41568 (TCR, V domains shown)
V domain 1: B2 V domain 1 with T98R
V domain 2: B2 V domain 2 with L98T, T100E, E101K, A102L, Q106S, R109Q, T111S, V113L
notes: stained with anti-mouse TCR constant region H57-597; full-length chains on transfected CHO cells; also called TCR No. 14
B27: PN41805 (TCR, V domains shown)
V domain 1: AQTVTQSQPEMSVQEAETVTLSCTYDTSENNYYLFWYKQPPSRQMILVIRQEAYKQQNATENRFSVNFQKAAKSFSLKISDSQLGDTAMYFCAFGMYSGGGADGLTFGKGTHLIIQP
V domain 2: AAGVIQSPRHLIKEKRETATLKCYPIPRHDTVYWYQQGPGQDPQFLISFYEKMQSDKGSIPDRFSAQQFSDYHSELNMSSLELGDSALYFCASSPTGTGDGYTFGSGTRLTVV
notes: stained with anti-mouse TCR constant region H57-597; full-length chains on transfected CHO cells; also called TCR No. 30
B28: PN41703 (TCR, V domains shown)
V domain 1: DAKTTQPPSMDCAEGRAANLPCNHSTISGNEYVYWYRQIHSQGPQYIIHGLKNNETNEMASLIITEDRKSSTLILPHATLRDTAVYYCIVRPGGTYKYIFGTGTRLKVLA
V domain 2: DVKVTQSSRYLVKRTGEKVFLECVQDMDHENMFWYRQDPGLGLRLIYFSYDVKMKEKGDIPEGYSVSREKKERFSLILESASTNQTSMYLCATGGDNQPQHFGDGTRLSIL
notes: stained with anti-mouse TCR constant region H57-597; full-length chains on transfected CHO cells; also called TCR No. 26
B29: PN41867 (TCR, V domains shown)
V domain 1: AQTVTQSQPEMSVQEAETVTLSCTYDTSENNYYLFWYKQPPSRQMILVIRQEAYKQQNATENRFSVNFQKAAKSFSLKISDSQLGDTAMYFCAFMKTQGGSEKLVFGKGTKLTVNP
V domain 2: AAGVIQSPRHLIKEKRETATLKCYPIPRHDTVYWYQQGPGQDPQFLISFYEKMQSDKGSIPDRFSAQQFSDYHSELNMSSLELGDSALYFCASSLVGYGYTFGSGTRLTVV
notes: stained with anti-mouse TCR constant region H57-597; full-length chains on transfected CHO cells; also called TCR No. 36

This is an account of results in US20220324939A1 (Regeneron, published 2022).

Numbering of substitutions follows the chain as printed.

The target in one test is T1, MAGE-A4 peptide on HLA-A*02:01. As to the kind of experiment: multimer staining.
With B1, the binding result is listed as “recognises”.
Still for that read-out and setting: next, B2: “recognises”.
The same measure, in the same setting: next, B3: “recognises”; B4: “recognises”; B5: “recognises”.
B6: the binding result is “recognises”.
Still for that read-out and setting: with B7 the entry was “recognises”.
For B8, the binding result is recorded as “recognises”.
With B9, the binding result is given as “recognises”.
The same measure, in the same setting: next, B10: “recognises”.
For B11, the binding result was “recognises”.
Still for that read-out and setting: next, B12: “recognises”.
The same measure, in the same setting: next, B13: “recognises”; B14: “recognises”; B15: “recognises”.
With B16, the binding result is given as “recognises”.
Same read-out and setting: next, B17: “recognises”; B18: “recognises”.
Same read-out and setting: next, B19: “recognises”.
Same read-out and setting: next, B20: “recognises”; B21: “recognises”; B22: “recognises”.
As to B23, the binding result is “recognises”.
B24: the binding result is “recognises”.
The same measure, in the same setting: with B25 the entry was “recognises”.
On the same count and under the same terms, with B26 the entry was “recognises”; with B27, “recognises”.
On the same count and under the same terms, next, B28: “recognises”; B29: “recognises”.

The next test concerns the target T2, soluble HLA-A2 (…) tetramer (human).
T2 construct: Bought tetramer reagent; also called MAGE-A4/HLA tetramer reagent; HLA-A02:01 MAGE-A4 tetramer
The test can be described thus: flow cytometry, HLA-A2 (…) tetramer staining of CHO cells transfected with the TCR.
Method: Samples were then analyzed on an LSRFortessa X-20 (BD Biosciences, San Jose, Calif.).
As for B1, the “% in Ag+ gate >250 MFI, >1%” value is 36.2%.
Still for that read-out and setting: next, B2: 90.2%.
Still for that read-out and setting: with B3 the figure was 13.8%; with B4, 8.32%.
In the case of B5, the “% in Ag+ gate >250 MFI, >1%” value amounted to 85.4%.
On the same count and under the same terms, with B6 the figure was 67.1%; with B7, 76.5%.
Still for that read-out and setting: next, B8: 18%; B9: 65.5%.
The same measure, in the same setting: next, B10: 4.02%.
For the molecule B11, the “% in Ag+ gate >250 MFI, >1%” value came to 81%.
As to B12, the “% in Ag+ gate >250 MFI, >1%” value stood at 63.5%.
The same measure, in the same setting: with B13 the figure was 8.13%.
The same measure, in the same setting: with B14 the figure was 34.9%; with B15, 90.5%.
Same read-out and setting: with B16 the figure was 19.5%.
For B17, the “% in Ag+ gate >250 MFI, >1%” value is 77%.
Still for that read-out and setting: next, B18: 75.3%.
Still for that read-out and setting: next, B19: 85.7%.
Turning to B20, the “% in Ag+ gate >250 MFI, >1%” value is 9.24%.
As to B21, the “% in Ag+ gate >250 MFI, >1%” value was found to be 90.6%.
Same read-out and setting: next, B22: 74.3%; B23: 80%; B24: 16.9%.
In the case of B25, the “% in Ag+ gate >250 MFI, >1%” value is 29.6%.
On the same count and under the same terms, next, B26: 82.9%; B27: 30.4%.
As to B28, the “% in Ag+ gate >250 MFI, >1%” value turned out to be 42.5%.
With B29, the “% in Ag+ gate >250 MFI, >1%” value was found to be 73%.
